Measured values published in patent US20260242419A1, “A CYCLIC PEPTIDE FOR TRAPPING INTERLEUKIN-1 BETA” (Merck Sharp & Dohme LLC, priority 2023, published 2026).
Starred links: 1 amine or outer side, 2 acyl side, 3 side chain; linkers in the order of their positions; H or OH if unused. Non-standard residues stand in square brackets, D forms with d. PyrimAla4AcPip = (2S)-3-[2-(4-acetylpiperazin-1-yl)pyrimidin-5-yl]-2-amino-propanoic acid, CC(=O)N1CCN(c2ncc(C[C@H](N[*:1])C(=O)[*:2])cn2)CC1; 3AzaPhe4AcPip = (2S)-3-[6-(4-acetylpiperazin-1-yl)-3-pyridyl]-2-amino-propanoic acid, CC(=O)N1CCN(c2ccc(C[C@H](N[*:1])C(=O)[*:2])cn2)CC1; TyrEtNAc = (2S)-3-[4-(2-acetamidoethoxy)phenyl]-2-amino-propanoic acid, CC(=O)NCCOc1ccc(C[C@H](N[*:1])C(=O)[*:2])cc1; dPro(4R-(4-pyridylmethyl)) = O=C(O)[C@H]1C[C@@H](Cc2ccncc2)CN1; Trp(βS-Me,4-F) = C[C@@H](c1c[nH]c2cccc(F)c12)[C@H](N)C(=O)O; Bip(4'-COOH) = N[C@@H](Cc1ccc(-c2ccc(C(=O)O)cc2)cc1)C(=O)O; Ala(1-bicyclo(1.1.1)pentyl) = N[C@@H](CC12CC(C1)C2)C(=O)O; dPro(4R-Bzl(4-F)) = O=C(O)[C@H]1C[C@@H](Cc2ccc(F)cc2)CN1; Ala(pyrimidin-5-yl) = N[C@@H](Cc1cncnc1)C(=O)O; Phe(4-COOH) = N[C@@H](Cc1ccc(C(=O)O)cc1)C(=O)O; Pro(cis-4-F) = O=C(O)[C@@H]1C[C@H](F)CN1; 4Pal = N[C@@H](Cc1ccncc1)C(=O)O; Dab = NCC[C@H](N)C(=O)O; Dap = NC[C@H](N)C(=O)O; Aib = CC(C)(N)C(=O)O

B1: SEQ ID NO: 39 (peptide)
peptide: cyclo([3AzaPhe4AcPip][4Pal][Phe(4-COOH)]G[Pro(cis-4-F)][Trp(βS-Me,4-F)][Aib]EW[Aib][Ala(pyrimidin-5-yl)]Q[Dab]G[dPro(4R-Bzl(4-F))])
SMILES: CC(=O)N1CCN(c2ccc(C[C@@H]3NC(=O)[C@H]4C[C@@H](Cc5ccc(F)cc5)CN4C(=O)CNC(=O)[C@H](CCN)NC(=O)[C@H](CCC(N)=O)NC(=O)[C@H](Cc4cncnc4)NC(=O)C(C)(C)NC(=O)[C@H](Cc4c[nH]c5ccccc45)NC(=O)[C@H](CCC(=O)O)NC(=O)C(C)(C)NC(=O)[C@H]([C@@H](C)c4c[nH]c5cccc(F)c45)NC(=O)[C@@H]4C[C@H](F)CN4C(=O)CNC(=O)[C@H](Cc4ccc(C(=O)O)cc4)NC(=O)[C@H](Cc4ccncc4)NC3=O)cn2)CC1
B2: SEQ ID NO: 45 (peptide)
peptide: cyclo([Bip(4'-COOH)][Ala(1-bicyclo(1.1.1)pentyl)][Phe(4-COOH)]G[Pro(cis-4-F)][Trp(βS-Me,4-F)][Aib]EW[Aib][4Pal]Q[Dab]G[dPro(4R-(4-pyridylmethyl))])
SMILES: C[C@@H](c1c[nH]c2cccc(F)c12)[C@@H]1NC(=O)[C@@H]2C[C@H](F)CN2C(=O)CNC(=O)[C@H](Cc2ccc(C(=O)O)cc2)NC(=O)[C@H](CC23CC(C2)C3)NC(=O)[C@H](Cc2ccc(-c3ccc(C(=O)O)cc3)cc2)NC(=O)[C@H]2C[C@@H](Cc3ccncc3)CN2C(=O)CNC(=O)[C@H](CCN)NC(=O)[C@H](CCC(N)=O)NC(=O)[C@H](Cc2ccncc2)NC(=O)C(C)(C)NC(=O)[C@H](Cc2c[nH]c3ccccc23)NC(=O)[C@H](CCC(=O)O)NC(=O)C(C)(C)NC1=O
B3: SEQ ID NO: 46 (peptide)
peptide: cyclo([Bip(4'-COOH)][Ala(1-bicyclo(1.1.1)pentyl)][Phe(4-COOH)]G[Pro(cis-4-F)][Trp(βS-Me,4-F)][Aib]EW[Aib][Ala(pyrimidin-5-yl)]Q[Dap]G[dPro(4R-(4-pyridylmethyl))])
SMILES: C[C@@H](c1c[nH]c2cccc(F)c12)[C@@H]1NC(=O)[C@@H]2C[C@H](F)CN2C(=O)CNC(=O)[C@H](Cc2ccc(C(=O)O)cc2)NC(=O)[C@H](CC23CC(C2)C3)NC(=O)[C@H](Cc2ccc(-c3ccc(C(=O)O)cc3)cc2)NC(=O)[C@H]2C[C@@H](Cc3ccncc3)CN2C(=O)CNC(=O)[C@H](CN)NC(=O)[C@H](CCC(N)=O)NC(=O)[C@H](Cc2cncnc2)NC(=O)C(C)(C)NC(=O)[C@H](Cc2c[nH]c3ccccc23)NC(=O)[C@H](CCC(=O)O)NC(=O)C(C)(C)NC1=O
B4: SEQ ID NO: 40 (peptide)
peptide: cyclo([PyrimAla4AcPip][4Pal][Phe(4-COOH)]G[Pro(cis-4-F)][Trp(βS-Me,4-F)][Aib]EW[Aib][Ala(pyrimidin-5-yl)]Q[Dab]G[dPro(4R-Bzl(4-F))])
SMILES: CC(=O)N1CCN(c2ncc(C[C@@H]3NC(=O)[C@H]4C[C@@H](Cc5ccc(F)cc5)CN4C(=O)CNC(=O)[C@H](CCN)NC(=O)[C@H](CCC(N)=O)NC(=O)[C@H](Cc4cncnc4)NC(=O)C(C)(C)NC(=O)[C@H](Cc4c[nH]c5ccccc45)NC(=O)[C@H](CCC(=O)O)NC(=O)C(C)(C)NC(=O)[C@H]([C@@H](C)c4c[nH]c5cccc(F)c45)NC(=O)[C@@H]4C[C@H](F)CN4C(=O)CNC(=O)[C@H](Cc4ccc(C(=O)O)cc4)NC(=O)[C@H](Cc4ccncc4)NC3=O)cn2)CC1
B5: SEQ ID NO: 43 (peptide)
peptide: cyclo([Bip(4'-COOH)][Ala(1-bicyclo(1.1.1)pentyl)][Phe(4-COOH)]G[Pro(cis-4-F)][Trp(βS-Me,4-F)][Aib]EW[Aib][Ala(pyrimidin-5-yl)]Q[Dab]G[dPro(4R-(4-pyridylmethyl))])
SMILES: C[C@@H](c1c[nH]c2cccc(F)c12)[C@@H]1NC(=O)[C@@H]2C[C@H](F)CN2C(=O)CNC(=O)[C@H](Cc2ccc(C(=O)O)cc2)NC(=O)[C@H](CC23CC(C2)C3)NC(=O)[C@H](Cc2ccc(-c3ccc(C(=O)O)cc3)cc2)NC(=O)[C@H]2C[C@@H](Cc3ccncc3)CN2C(=O)CNC(=O)[C@H](CCN)NC(=O)[C@H](CCC(N)=O)NC(=O)[C@H](Cc2cncnc2)NC(=O)C(C)(C)NC(=O)[C@H](Cc2c[nH]c3ccccc23)NC(=O)[C@H](CCC(=O)O)NC(=O)C(C)(C)NC1=O
B6: SEQ ID NO: 42 (peptide)
peptide: cyclo([Bip(4'-COOH)][4Pal][Phe(4-COOH)]G[Pro(cis-4-F)][Trp(βS-Me,4-F)][Aib]SW[Aib][Ala(pyrimidin-5-yl)]Q[Dab]G[dPro(4R-(4-pyridylmethyl))])
B7: SEQ ID NO: 48 (peptide)
peptide: cyclo([Bip(4'-COOH)][Ala(1-bicyclo(1.1.1)pentyl)][Phe(4-COOH)]G[Pro(cis-4-F)][Trp(βS-Me,4-F)][Aib]EW[Aib][4Pal]Q[Dap]G[dPro(4R-(4-pyridylmethyl))])
B8: SEQ ID NO: 44 (peptide)
peptide: cyclo([Bip(4'-COOH)][Ala(1-bicyclo(1.1.1)pentyl)][Phe(4-COOH)]G[Pro(cis-4-F)][Trp(βS-Me,4-F)][Aib]SW[Aib][Ala(pyrimidin-5-yl)]Q[Dab]G[dPro(4R-(4-pyridylmethyl))])
B9: SEQ ID NO: 4 (peptide)
peptide: cyclo([Bip(4'-COOH)][4Pal][Phe(4-COOH)]G[Pro(cis-4-F)][Trp(βS-Me,4-F)][Aib]EW[Aib][Ala(pyrimidin-5-yl)]Q[Dab]G[dPro(4R-Bzl(4-F))])
SMILES: C[C@@H](c1c[nH]c2cccc(F)c12)[C@@H]1NC(=O)[C@@H]2C[C@H](F)CN2C(=O)CNC(=O)[C@H](Cc2ccc(C(=O)O)cc2)NC(=O)[C@H](Cc2ccncc2)NC(=O)[C@H](Cc2ccc(-c3ccc(C(=O)O)cc3)cc2)NC(=O)[C@H]2C[C@@H](Cc3ccc(F)cc3)CN2C(=O)CNC(=O)[C@H](CCN)NC(=O)[C@H](CCC(N)=O)NC(=O)[C@H](Cc2cncnc2)NC(=O)C(C)(C)NC(=O)[C@H](Cc2c[nH]c3ccccc23)NC(=O)[C@H](CCC(=O)O)NC(=O)C(C)(C)NC1=O
B10: SEQ ID NO: 47 (peptide)
peptide: cyclo([Bip(4'-COOH)][4Pal][Phe(4-COOH)]G[Pro(cis-4-F)][Trp(βS-Me,4-F)][Aib]EW[Aib][4Pal]Q[Dap]G[dPro(4R-(4-pyridylmethyl))])
SMILES: C[C@@H](c1c[nH]c2cccc(F)c12)[C@@H]1NC(=O)[C@@H]2C[C@H](F)CN2C(=O)CNC(=O)[C@H](Cc2ccc(C(=O)O)cc2)NC(=O)[C@H](Cc2ccncc2)NC(=O)[C@H](Cc2ccc(-c3ccc(C(=O)O)cc3)cc2)NC(=O)[C@H]2C[C@@H](Cc3ccncc3)CN2C(=O)CNC(=O)[C@H](CN)NC(=O)[C@H](CCC(N)=O)NC(=O)[C@H](Cc2ccncc2)NC(=O)C(C)(C)NC(=O)[C@H](Cc2c[nH]c3ccccc23)NC(=O)[C@H](CCC(=O)O)NC(=O)C(C)(C)NC1=O
B11: SEQ ID NO: 49 (peptide)
peptide: cyclo([TyrEtNAc][4Pal][Phe(4-COOH)]G[Pro(cis-4-F)][Trp(βS-Me,4-F)][Aib]EW[Aib][Ala(pyrimidin-5-yl)]Q[Dab]G[dPro(4R-(4-pyridylmethyl))])
SMILES: CC(=O)NCCOc1ccc(C[C@@H]2NC(=O)[C@H]3C[C@@H](Cc4ccncc4)CN3C(=O)CNC(=O)[C@H](CCN)NC(=O)[C@H](CCC(N)=O)NC(=O)[C@H](Cc3cncnc3)NC(=O)C(C)(C)NC(=O)[C@H](Cc3c[nH]c4ccccc34)NC(=O)[C@H](CCC(=O)O)NC(=O)C(C)(C)NC(=O)[C@H]([C@@H](C)c3c[nH]c4cccc(F)c34)NC(=O)[C@@H]3C[C@H](F)CN3C(=O)CNC(=O)[C@H](Cc3ccc(C(=O)O)cc3)NC(=O)[C@H](Cc3ccncc3)NC2=O)cc1
B12: SEQ ID NO: 41 (peptide)
peptide: cyclo([Bip(4'-COOH)][4Pal][Phe(4-COOH)]G[Pro(cis-4-F)][Trp(βS-Me,4-F)][Aib]AW[Aib][Ala(pyrimidin-5-yl)]Q[Dab]G[dPro(4R-(4-pyridylmethyl))])
SMILES: C[C@@H]1NC(=O)C(C)(C)NC(=O)[C@H]([C@@H](C)c2c[nH]c3cccc(F)c23)NC(=O)[C@@H]2C[C@H](F)CN2C(=O)CNC(=O)[C@H](Cc2ccc(C(=O)O)cc2)NC(=O)[C@H](Cc2ccncc2)NC(=O)[C@H](Cc2ccc(-c3ccc(C(=O)O)cc3)cc2)NC(=O)[C@H]2C[C@@H](Cc3ccncc3)CN2C(=O)CNC(=O)[C@H](CCN)NC(=O)[C@H](CCC(N)=O)NC(=O)[C@H](Cc2cncnc2)NC(=O)C(C)(C)NC(=O)[C@H](Cc2c[nH]c3ccccc23)NC1=O
B13: SEQ ID NO: 5 (peptide)
peptide: cyclo([Bip(4'-COOH)][4Pal][Phe(4-COOH)]G[Pro(cis-4-F)][Trp(βS-Me,4-F)][Aib]SW[Aib]SQ[Dab]G[dPro(4R-Bzl(4-F))])
SMILES: C[C@@H](c1c[nH]c2cccc(F)c12)[C@@H]1NC(=O)[C@@H]2C[C@H](F)CN2C(=O)CNC(=O)[C@H](Cc2ccc(C(=O)O)cc2)NC(=O)[C@H](Cc2ccncc2)NC(=O)[C@H](Cc2ccc(-c3ccc(C(=O)O)cc3)cc2)NC(=O)[C@H]2C[C@@H](Cc3ccc(F)cc3)CN2C(=O)CNC(=O)[C@H](CCN)NC(=O)[C@H](CCC(N)=O)NC(=O)[C@H](CO)NC(=O)C(C)(C)NC(=O)[C@H](Cc2c[nH]c3ccccc23)NC(=O)[C@H](CO)NC(=O)C(C)(C)NC1=O

Each binder was assayed against Recombinant human IL-1β (BioLegend 579404) (human, UniProt P01584 117-269) (assay: cell-based or functional assay).
For B1, the “MRC5 IC50” value was 0.063 nM. In the case of B2, the “MRC5 IC50” value is reported as 0.027 nM. For B3, the “MRC5 IC50” value was 0.034 nM. In the case of B4, the “MRC5 IC50” value is reported as 0.048 nM. In the case of B5, the “MRC5 IC50” value is reported as 0.026 nM. With B6 the “MRC5 IC50” value was 0.021 nM. In the case of B7, the “MRC5 IC50” value is reported as 0.027 nM. With B8 the “MRC5 IC50” value was 0.021 nM. B9 was tested, and the “MRC5 IC50” value was 0.031 nM. With B10 the “MRC5 IC50” value was 0.029 nM. B11 was tested, and the “MRC5 IC50” value was 0.047 nM. For B12, the “MRC5 IC50” value was 0.029 nM. In the case of B13, the “MRC5 IC50” value is reported as 0.039 nM.
